The source of these data is patent US20160003844A1 (MOGAM BIOTHECHNOLOGY INSTITUTE, published 2016).

Broadly, the Kd is the equilibrium constant for the complex coming apart.

B1: HSA50 (other)
VH: EVQLVESGGGLVQPGGSLRLSCAASGFTFSSYAMGWVRQAPGKGPEVVSLISGSGGSTWYDDSVKGRFTISRDNSKNTLYLQMNSLRAEDTAVYYCASHQFTTTQWGQGTLVTVSS
notes: Human VH domain antibody (single heavy chain variable domain)
B2: HSA11 (other)
VH: EVQLVESGGGLVQPGGSLRLSCAASGFTFSSYAMGWVRQAPGKGPEVVSLISGSGGSTWYDDSVKGRFTISRDNSKNTLYLQMNSLRAEDTAVYYCASHKFRNLKWGQGTLVTVSS
notes: as for B1
B3: HSA9 (other)
VH: EVQLVESGGGLVQPGGSLRLSCAASGFTFSSYAMGWVRQAPGKGPEVVSLISGSGGSTWYDDSVKGRFTISRDNSKNTLYLQMNSLRAEDTAVYYCASHQWSRQQWGQGTLVTVSS
notes: Human VH domain antibody (single heavy chain variable domain) selected from a CDR-engineered library; its FR2 matches the MG8-4 scaffold
B4: HER3#62 (other)
VH: EVQLVESGGGLVQPGGSLRLSCAASGFTFSSYAMGWVRQAPGKGPEVVSLISGSGGSTWYDDSVKGRFTISRDNSKNTLYLQMNSLRAEDTAVYYCASHPPRVDTWGQGTLVTVSS
notes: as for B1
B5: HER3#723 (other)
VH: EVQLVESGGGLVQPGGSLRLSCAASGFTFYNYPMGWVRQAPGKGPEVVSLISGSGGSTWYDDSVKGRFTISRDNSKNTLYLQMNSLRAENTAVYYCASHPVSLLFWGQGTLVTVSS
notes: Human VH domain antibody (single heavy chain variable domain), FR3 reads ...SLRAEN TAVYYC (N where the other clones have D)
B6: HER3#748 (other)
VH: EVQLVESGGGLVQPGGSLRLSCAASGFTFYSLMMGWVRQAPGKGPEVVSLISGSGGSTWYDDSVKGRFTISRDNSKNTLYLQMNSLRAEDTAVYYCASRHPPGLMWGQGTLVTVSS
notes: as for B1

For one experiment, the target named is T1, human serum albumin (human, UniProt P02768 25-609).
T1 construct: also called HAS; HSA
T1 sequence (P02768 25-609 limits assumed): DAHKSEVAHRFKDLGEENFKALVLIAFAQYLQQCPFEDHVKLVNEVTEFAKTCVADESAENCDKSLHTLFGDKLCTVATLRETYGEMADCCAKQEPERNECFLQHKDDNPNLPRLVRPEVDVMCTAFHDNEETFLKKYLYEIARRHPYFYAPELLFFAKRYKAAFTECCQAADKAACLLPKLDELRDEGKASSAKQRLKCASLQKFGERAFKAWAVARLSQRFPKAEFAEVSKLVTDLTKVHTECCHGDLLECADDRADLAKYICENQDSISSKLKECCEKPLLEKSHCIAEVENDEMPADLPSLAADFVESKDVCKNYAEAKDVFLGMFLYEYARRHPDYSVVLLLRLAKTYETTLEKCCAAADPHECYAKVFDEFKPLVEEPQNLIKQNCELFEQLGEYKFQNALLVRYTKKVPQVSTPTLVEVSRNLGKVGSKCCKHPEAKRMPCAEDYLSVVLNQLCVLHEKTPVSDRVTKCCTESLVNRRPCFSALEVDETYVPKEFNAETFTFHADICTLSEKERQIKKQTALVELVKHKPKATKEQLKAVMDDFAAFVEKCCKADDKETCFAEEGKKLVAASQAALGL
Description: method not stated; 'Affinity (nM)'.
On to B1, for which binding was characterised by a dissociation constant (Kd) of 7.8 nM. This counts as single-digit nanomolar.
Same read-out and setting: with B2 the figure was 1.2 nM; with B3, 1.7 nM.

In a further experiment the target is T2, Human Epidermal Growth Factor Receptor-3 (human, UniProt P21860 20-643, limits assumed).
T2 construct: also called HER3
T2 sequence (P21860 20-643 limits assumed): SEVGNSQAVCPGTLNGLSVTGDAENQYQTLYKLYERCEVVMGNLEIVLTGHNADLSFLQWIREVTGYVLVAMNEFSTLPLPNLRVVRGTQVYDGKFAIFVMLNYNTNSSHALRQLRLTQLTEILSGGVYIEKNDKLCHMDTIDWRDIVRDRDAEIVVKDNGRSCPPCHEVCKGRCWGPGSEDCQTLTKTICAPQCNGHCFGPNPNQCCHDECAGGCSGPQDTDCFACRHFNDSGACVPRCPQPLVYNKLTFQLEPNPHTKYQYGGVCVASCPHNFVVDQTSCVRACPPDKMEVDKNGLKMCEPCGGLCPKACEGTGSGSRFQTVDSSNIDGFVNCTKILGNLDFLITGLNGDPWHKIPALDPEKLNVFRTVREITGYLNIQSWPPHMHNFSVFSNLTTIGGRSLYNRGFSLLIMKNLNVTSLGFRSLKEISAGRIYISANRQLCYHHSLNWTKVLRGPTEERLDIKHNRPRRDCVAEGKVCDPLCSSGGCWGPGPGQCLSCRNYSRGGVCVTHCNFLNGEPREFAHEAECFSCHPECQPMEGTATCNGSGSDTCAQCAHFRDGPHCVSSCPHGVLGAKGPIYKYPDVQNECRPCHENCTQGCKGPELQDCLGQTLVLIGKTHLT
Description: method not stated; 'Affinity (nM)'.
B4: the Kd was 1.8 nM.
Same read-out and setting: with B5 the figure was 27.4 nM; with B6, 20 nM.
